In US20260250318A1, “COMPOSITIONS AND METHODS FOR CROSSING THE BLOOD BRAIN BARRIER” (VOYAGER THERAPEUTICS, INC., priority 2022, published 2026):

Biological target: T1, library of over 5,500 cDNAs overexpressed in human cells (ALPL) (Homo sapiens, UniProt P05186)
T1 construct: expressed in transfected cells
T1 sequence (P05186 18-501): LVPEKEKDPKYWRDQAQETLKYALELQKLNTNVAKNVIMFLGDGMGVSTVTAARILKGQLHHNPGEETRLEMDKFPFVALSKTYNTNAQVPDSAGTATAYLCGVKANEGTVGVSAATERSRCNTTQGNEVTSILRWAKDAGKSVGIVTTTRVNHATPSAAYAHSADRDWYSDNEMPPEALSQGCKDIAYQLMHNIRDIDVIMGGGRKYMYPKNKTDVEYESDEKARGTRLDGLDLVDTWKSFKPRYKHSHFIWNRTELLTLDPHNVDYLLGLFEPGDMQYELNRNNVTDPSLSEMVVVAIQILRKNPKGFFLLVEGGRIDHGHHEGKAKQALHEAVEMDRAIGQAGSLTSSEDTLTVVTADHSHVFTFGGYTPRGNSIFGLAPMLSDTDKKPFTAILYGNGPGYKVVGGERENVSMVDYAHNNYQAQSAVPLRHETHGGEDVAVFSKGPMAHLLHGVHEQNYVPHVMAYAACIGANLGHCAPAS
Assay: Cell binding array assay for receptor identification
Settings: detected with anti-AAV9 antibody
Description: A cell binding array assay was then used to identify a receptor for the TTM-001 and TTM-002 capsid variants. Briefly, a library of over 5,500 cDNAs was overexpressed in human cells. Cells were contacted with a test ligand, e.g., AAV viral particles comprising a TTM-001 capsid variant or an AAV9 control capsid, which was applied to the array. Binding of the TTM-001 capsid variant or the AAV9 control capsid to the cells was detected using an anti-AAV9 antibody followed by a labeled anti-IgG detection antibody. […] This interacting protein was identified as the GPI-anchored protein, alkaline phosphatase issue-nonspecific isozyme (NM_000478.4, which is incorporated by reference herein) (ALPL). ALPL is part of a family of membrane-bound glycoproteins that hydrolyze monophosphate esters at a high pH (see, e.g., Weiss et al., Isolation and characterization of a cDNA encoding a human liver/bone/kidney-type alkaline phosphatase. Proc. Natl. Acad. Sci., 83:7182-7186 (1986), the contents of which are hereby incorporated by reference in their entirety).

B1: TTM-001: AAV9 capsid variant comprising SPHSKA (SEQ ID NO: 941) in loop IV (protein)
chain 1: MAADGYLPDWLEDNLSEGIREWWALKPGAPQPKANQQHQDNARGLVLPGYKYLGPGNGLDKGEPVNAADAAALEHDKAYDQQLKAGDNPYLKYNHADAEFQERLKEDTSFGGNLGRAVFQAKKRLLEPLGLVEEAAKTAPGKKRPVEQSPQEPDSSAGIGKSGAQPAKKRLNFGQTGDTESVPDPQPIGEPPAAPSGVGSLTMASGGGAPVADNNEGADGVGSSSGNWHCDSQWLGDRVITTSTRTWALPTYNNHLYKQISNSTSGGSSNDNAYFGYSTPWGYFDFNRFHCHFSPRDWQRLINNNWGFRPKRLNFKLFNIQVKEVTDNNGVKTIANNLTSTVQVFTDSDYQLPYVLGSAHEGCLPPFPADVFMIPQYGYLTLNDGSQAVGRSSFYCLEYFPSQMLRTGNNFQFSYEFENVPFHSSYAHSQSLDRLMNPLIDQYLYYLSKTINGSGSPHSKAQNQQTLKFSVAGPSNMAVQGRNYIPGPSYRQQRVSTTVTQNNNSEFAWPGASSWALNGRNSLMNPGPAMASHKEGEDRFFPLSGSLIFGKQGTGRDNVDADKVMITNEEEIKTTNPVATESYGQVATNHQSAQAQAQTGWVQNQGILPGMVWQDRDVYLQGPIWAKIPHTDGNFHPSPLMGGFGMKHPPPQILIKNTPVPADPPTAFNKDKLNSFITQYSTGQVSVEIEWELQKENSKRWNPEIQYTSNYYKSNNVEFAVNTEGVYSEPRPIGTRYLTRNL
chain 2: GSGSPHSKAQNQQT
  interaction with ALPL in cell binding array: a unique interaction with the TTM-001 capsid variant
